Test results reported in patent publication US20240368617A1, “NPR1 VARIANT TO ENHANCE PLANT RESISTANCE TO BIOTIC AND ABIOTIC STRESSES AND METHOD THEREOF” (Duke University, published 2024).

Key:
Experiment in all cases: EMSA
NPR1 = NPR1 (Arabidopsis thaliana, UniProt P93002 SEQ:1-593); conditions: tags: His10-MBP (PreScission site) N-terminal, C-terminal Strep tag; E. coli; chain copies: 2 (stated); label: 6-FAM
Procedure: (§1) The npr1(dim) mutant (L49D/F53D/V56D/V83K) was cloned into the pTrcHis vector (Thermo Fisher Scientific) as a His10-MBP fusion protein containing a PreScission protease site following MBP and a C-terminal Strep tag, and was expressed and purified similarly to the WT NPR 1 protein. Purified TGA3 (Asn87-Thr384) at a concentration of 0.6 μM and WT NPR1 or the npr1(dim) mutant at a concentration of 8 μM were used in the EMSA with the 6-fluorescein (6-FAM)-labelled oligonucleotide probes (200 nM) containing the LS5 and LS7 as-I cis-elements of the SA-responsive PRI gene promoter (LS5/LS7, 6-FAM-C-ggg[…]ggg) or DNA sequences with the two as-1 regions replaced with adenosines (LS5/LS7, 6-FAM-C-ggg[…]ggg), with the LS7 as-1 element replaced with adenosines (LS5/LS7, 6-FAM-C-ggg[…]-GAggg) or with the LS5 as-1 element replaced with adenosines (LS5/LS7, 6-FAM-C-ggg[…]ggg) as well as their complementary oligonucleotides (Integrated DNA Technologies). The uppercase bases indicate the LS5/LS7 sequence; the lowercase bases indicate overhangs outside the LS5/LS7 sequence; and bases replaced with adenosines are indicated with A's in the small capital font. Pairs of complementary DNA strands were annealed before the binding reaction. For each binding reaction, the desired protein combination was mixed with the target DNA probe together with 30 ng/μL of poly (dI-dC) (non-specific competitor, Thermo Fisher Scientific) in a binding buffer containing 20 mM HEPES (pH 8.0), 300 mM NaCl, 10% glycerol, 1 mM DTT and 0.2 mM SA. […] After electrophoresis, the gel was scanned with the Typhoon FLA 7000 imager (GE Healthcare).

TGA3 (Asn87-Thr384) = molecular target: T1, TGA3 (Asn87-Thr384) (Arabidopsis thaliana, UniProt Q39234 Q39234:87-384); conditions: tags: His10-MBP (PreScission site) N-terminal, C-terminal tandem Flag-HA; AT1G22070; E. coli; label: 6-FAM
T1 sequence: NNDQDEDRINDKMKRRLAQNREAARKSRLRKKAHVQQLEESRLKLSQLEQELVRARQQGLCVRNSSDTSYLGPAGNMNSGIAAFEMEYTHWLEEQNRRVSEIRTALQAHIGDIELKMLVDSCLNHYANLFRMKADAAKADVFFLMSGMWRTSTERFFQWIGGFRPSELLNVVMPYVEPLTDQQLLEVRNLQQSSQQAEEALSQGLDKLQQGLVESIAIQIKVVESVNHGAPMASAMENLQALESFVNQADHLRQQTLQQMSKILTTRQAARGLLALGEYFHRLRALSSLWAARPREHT
Procedure: as §1

[1] = molecular target: TGA3 (Asn87-Thr384) + NPR1 complex (Arabidopsis thaliana, UniProt Q39234;P93002 Q39234:87-384,P93002:1-593); conditions: tags: TGA3-Flag-HA; NPR1-Strep; chain copies: TGA3 dimer x2 + NPR1 dimer (stated); label: 6-FAM
Procedure: as §1

B1: PR1 promoter LS5/LS7 (dsDNA)
DNA 1: GGGCTATGACGTAAGTAAAATAGTGACGTAGAGAGGG
DNA 2: CCCTCTCTACGTCACTATTTTACTTACGTCATAGCCC
NPR1
  binding result: no binding
TGA3 (Asn87-Thr384)
  binding result: binds
[1]
  binding result: binds
